In the test the target is T1, human GIP receptor (human, UniProt P48546 22-466).
T1 sequence (looked up): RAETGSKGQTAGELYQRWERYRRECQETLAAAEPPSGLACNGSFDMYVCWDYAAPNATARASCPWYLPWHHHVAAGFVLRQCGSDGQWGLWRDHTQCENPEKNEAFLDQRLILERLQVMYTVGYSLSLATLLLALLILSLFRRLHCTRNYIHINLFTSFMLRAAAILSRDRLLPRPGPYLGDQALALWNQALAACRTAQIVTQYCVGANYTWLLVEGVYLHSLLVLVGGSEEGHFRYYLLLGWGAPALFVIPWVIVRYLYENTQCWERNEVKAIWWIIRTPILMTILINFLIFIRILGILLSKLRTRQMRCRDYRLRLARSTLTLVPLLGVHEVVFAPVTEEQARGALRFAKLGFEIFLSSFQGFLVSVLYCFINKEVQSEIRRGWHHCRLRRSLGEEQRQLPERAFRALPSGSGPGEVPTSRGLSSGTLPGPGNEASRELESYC
In words: cell-based or functional assay.

Starred links: 1 amine or outer side, 2 acyl side, 3 side chain; linkers in the order of their positions; H or OH if unused. Non-standard residues stand in square brackets, D forms with d. Groups on a side chain read outwards from the residue. No end group written: not given here. *: point of attachment. C18 diacid = O=C(O)CCCCCCCCCCCCCCCCC(=O)*; C16 diacid = O=C(O)CCCCCCCCCCCCCCC(=O)*; γGlu = O=C(O)[C@H](CCC(=O)[*:2])N[*:1]; Glutaryl = O=C(CCCC(=O)[*:2])[*:1]; Nle = CCCC[C@H](N)C(=O)O; AEEA = NCCOCCOCC(=O)O; Aib = CC(C)(N)C(=O)O

The source of these data is US20230416330A1, “Optimized GIP Peptide Analogues” (Antag Therapeutics ApS, priority 2019, published 2023).

B1: AT694 (peptide)
peptide: EGTFISEYSIA[Nle]EKIK([AEEA-AEEA-γGlu-C18 diacid])QQEFVEWLLAQKPSSGAPPPS-OH
modifications: N-terminus assumed
SMILES: CCCC[C@H](NC(=O)[C@H](C)NC(=O)[C@@H](NC(=O)[C@H](CO)NC(=O)[C@H](Cc1ccc(O)cc1)NC(=O)[C@H](CCC(=O)O)NC(=O)[C@H](CO)NC(=O)[C@@H](NC(=O)[C@H](Cc1ccccc1)NC(=O)[C@@H](NC(=O)CNC(=O)[C@@H](N)CCC(=O)O)[C@@H](C)O)[C@@H](C)CC)[C@@H](C)CC)C(=O)N[C@@H](CCC(=O)O)C(=O)N[C@@H](CCCCN)C(=O)N[C@H](C(=O)N[C@@H](CCCCNC(=O)COCCOCCNC(=O)COCCOCCNC(=O)CC[C@H](NC(=O)CCCCCCCCCCCCCCCCC(=O)O)C(=O)O)C(=O)N[C@@H](CCC(N)=O)C(=O)N[C@@H](CCC(N)=O)C(=O)N[C@@H](CCC(=O)O)C(=O)N[C@@H](Cc1ccccc1)C(=O)N[C@H](C(=O)N[C@@H](CCC(=O)O)C(=O)N[C@@H](Cc1c[nH]c2ccccc12)C(=O)N[C@@H](CC(C)C)C(=O)N[C@@H](CC(C)C)C(=O)N[C@@H](C)C(=O)N[C@@H](CCC(N)=O)C(=O)N[C@@H](CCCCN)C(=O)N1CCC[C@H]1C(=O)N[C@@H](CO)C(=O)N[C@@H](CO)C(=O)NCC(=O)N[C@@H](C)C(=O)N1CCC[C@H]1C(=O)N1CCC[C@H]1C(=O)N1CCC[C@H]1C(=O)N[C@@H](CO)C(=O)O)C(C)C)[C@@H](C)CC
Take B1: the “cAMP antagonism % inhib (CisBio assay)” value came to 88%; the “cAMP antagonism nM (IC50, CisBio assay)” value is 1.47 nM; the “cAMP antagonism pIC50 (CisBio assay)” value is 8.8.

On to Glutaryl-GTFISDYSIA[Nle]DKIK([AEEA-AEEA-γGlu-C18 diacid])QQDFVEWLLAQKPSSGAPPPS-OH [AT702], for which the “cAMP antagonism % inhib (CisBio assay)” value amounted to 85%; the “cAMP antagonism nM (IC50, CisBio assay)” value was 3.55 nM; the “cAMP antagonism pIC50 (CisBio assay)” value came to 8.5.

B2: AT696 (peptide)
peptide: EGTFISEYSI[Aib][Nle]EKIK([AEEA-AEEA-γGlu-C18 diacid])QQEFVEWLLAQKPSSGAPPPS-OH
modifications: N-terminus assumed
SMILES: CCCC[C@H](NC(=O)C(C)(C)NC(=O)[C@@H](NC(=O)[C@H](CO)NC(=O)[C@H](Cc1ccc(O)cc1)NC(=O)[C@H](CCC(=O)O)NC(=O)[C@H](CO)NC(=O)[C@@H](NC(=O)[C@H](Cc1ccccc1)NC(=O)[C@@H](NC(=O)CNC(=O)[C@@H](N)CCC(=O)O)[C@@H](C)O)[C@@H](C)CC)[C@@H](C)CC)C(=O)N[C@@H](CCC(=O)O)C(=O)N[C@@H](CCCCN)C(=O)N[C@H](C(=O)N[C@@H](CCCCNC(=O)COCCOCCNC(=O)COCCOCCNC(=O)CC[C@H](NC(=O)CCCCCCCCCCCCCCCCC(=O)O)C(=O)O)C(=O)N[C@@H](CCC(N)=O)C(=O)N[C@@H](CCC(N)=O)C(=O)N[C@@H](CCC(=O)O)C(=O)N[C@@H](Cc1ccccc1)C(=O)N[C@H](C(=O)N[C@@H](CCC(=O)O)C(=O)N[C@@H](Cc1c[nH]c2ccccc12)C(=O)N[C@@H](CC(C)C)C(=O)N[C@@H](CC(C)C)C(=O)N[C@@H](C)C(=O)N[C@@H](CCC(N)=O)C(=O)N[C@@H](CCCCN)C(=O)N1CCC[C@H]1C(=O)N[C@@H](CO)C(=O)N[C@@H](CO)C(=O)NCC(=O)N[C@@H](C)C(=O)N1CCC[C@H]1C(=O)N1CCC[C@H]1C(=O)N1CCC[C@H]1C(=O)N[C@@H](CO)C(=O)O)C(C)C)[C@@H](C)CC
Turning to B2, the “cAMP antagonism % inhib (CisBio assay)” value was found to be 97%; the “cAMP antagonism nM (IC50, CisBio assay)” value stood at 0.584 nM; the “cAMP antagonism pIC50 (CisBio assay)” value worked out at 9.2.

B3: AT693 (peptide)
peptide: EGTFISEYSIALEKIK([AEEA-AEEA-γGlu-C18 diacid])QQEFVEWLLAQKPSSGAPPPS-OH
modifications: N-terminus assumed
SMILES: CC[C@H](C)[C@H](NC(=O)[C@H](CO)NC(=O)[C@H](Cc1ccc(O)cc1)NC(=O)[C@H](CCC(=O)O)NC(=O)[C@H](CO)NC(=O)[C@@H](NC(=O)[C@H](Cc1ccccc1)NC(=O)[C@@H](NC(=O)CNC(=O)[C@@H](N)CCC(=O)O)[C@@H](C)O)[C@@H](C)CC)C(=O)N[C@@H](C)C(=O)N[C@@H](CC(C)C)C(=O)N[C@@H](CCC(=O)O)C(=O)N[C@@H](CCCCN)C(=O)N[C@H](C(=O)N[C@@H](CCCCNC(=O)COCCOCCNC(=O)COCCOCCNC(=O)CC[C@H](NC(=O)CCCCCCCCCCCCCCCCC(=O)O)C(=O)O)C(=O)N[C@@H](CCC(N)=O)C(=O)N[C@@H](CCC(N)=O)C(=O)N[C@@H](CCC(=O)O)C(=O)N[C@@H](Cc1ccccc1)C(=O)N[C@H](C(=O)N[C@@H](CCC(=O)O)C(=O)N[C@@H](Cc1c[nH]c2ccccc12)C(=O)N[C@@H](CC(C)C)C(=O)N[C@@H](CC(C)C)C(=O)N[C@@H](C)C(=O)N[C@@H](CCC(N)=O)C(=O)N[C@@H](CCCCN)C(=O)N1CCC[C@H]1C(=O)N[C@@H](CO)C(=O)N[C@@H](CO)C(=O)NCC(=O)N[C@@H](C)C(=O)N1CCC[C@H]1C(=O)N1CCC[C@H]1C(=O)N1CCC[C@H]1C(=O)N[C@@H](CO)C(=O)O)C(C)C)[C@@H](C)CC
With B3, the “cAMP antagonism % inhib (CisBio assay)” value turned out to be 96%; the “cAMP antagonism nM (IC50, CisBio assay)” value is 1.26 nM; the “cAMP antagonism pIC50 (CisBio assay)” value is 8.9.

As to Glutaryl-GTFISDYSIA[Nle]DKIK(C16 diacid)QQDFVEWLLAQKPSSGAPPPS-OH [AT700], the “cAMP antagonism % inhib (CisBio assay)” value is 89%; the “cAMP antagonism nM (IC50, CisBio assay)” value was determined as 0.708 nM; the “cAMP antagonism pIC50 (CisBio assay)” value is 9.2.

B4: AT695 (peptide)
peptide: EGTFISEYSI[Aib]LEKIK([AEEA-AEEA-γGlu-C18 diacid])QQEFVEWLLAQKPSSGAPPPS-OH
modifications: N-terminus assumed
SMILES: CC[C@H](C)[C@H](NC(=O)[C@H](CCCCN)NC(=O)[C@H](CCC(=O)O)NC(=O)[C@H](CC(C)C)NC(=O)C(C)(C)NC(=O)[C@@H](NC(=O)[C@H](CO)NC(=O)[C@H](Cc1ccc(O)cc1)NC(=O)[C@H](CCC(=O)O)NC(=O)[C@H](CO)NC(=O)[C@@H](NC(=O)[C@H](Cc1ccccc1)NC(=O)[C@@H](NC(=O)CNC(=O)[C@@H](N)CCC(=O)O)[C@@H](C)O)[C@@H](C)CC)[C@@H](C)CC)C(=O)N[C@@H](CCCCNC(=O)COCCOCCNC(=O)COCCOCCNC(=O)CC[C@H](NC(=O)CCCCCCCCCCCCCCCCC(=O)O)C(=O)O)C(=O)N[C@@H](CCC(N)=O)C(=O)N[C@@H](CCC(N)=O)C(=O)N[C@@H](CCC(=O)O)C(=O)N[C@@H](Cc1ccccc1)C(=O)N[C@H](C(=O)N[C@@H](CCC(=O)O)C(=O)N[C@@H](Cc1c[nH]c2ccccc12)C(=O)N[C@@H](CC(C)C)C(=O)N[C@@H](CC(C)C)C(=O)N[C@@H](C)C(=O)N[C@@H](CCC(N)=O)C(=O)N[C@@H](CCCCN)C(=O)N1CCC[C@H]1C(=O)N[C@@H](CO)C(=O)N[C@@H](CO)C(=O)NCC(=O)N[C@@H](C)C(=O)N1CCC[C@H]1C(=O)N1CCC[C@H]1C(=O)N1CCC[C@H]1C(=O)N[C@@H](CO)C(=O)O)C(C)C
Turning to B4, the “cAMP antagonism % inhib (CisBio assay)” value was found to be 98%; the “cAMP antagonism nM (IC50, CisBio assay)” value was 0.794 nM; the “cAMP antagonism pIC50 (CisBio assay)” value is 9.1.
